Assay results taken from patent publication US20160279221A1.

Target: AMA1 on P. falciparum 3D7 strain parasites (Plasmodium falciparum)
Assay: cell-based or functional assay

Substance: rat mAb 4G2dc1 (antibody)
- IC30 concentration (30% inhibition against the 3D7 target parasites, GIA): 1800 µg/mL
- Inhibition (GIA at 1 mg/ml against the 3D7 target strain): 22%
